T1: CsrA-Strep (Bacillus subtilis, UniProt P33911 1-74)
T1 sequence: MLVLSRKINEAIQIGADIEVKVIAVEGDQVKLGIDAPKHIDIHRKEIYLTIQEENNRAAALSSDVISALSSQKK

B1: RnaC (structured_RNA)
RNA: UAAGGCCGGCGCGAUACUCCCUAUAACAUCCUUUUCAGUAGAUUUCAUUAUCGUGCCGGUUUUCUCAUAUGCAAAGCAAUCCCGCCAAUCAGAUUGGCGGGGAUUUUAUAUUU
B2: FsrA (structured_RNA)
RNA: AUAGAGAGAAGCUACUCUCUGUUCCCCAACCCCUCUAUCAGAUCAAGAUCCGGAAAAAACUUGGCGCUACCCCCGCCAAGUUUUU
B3: RoxS (structured_RNA)
RNA: GUGAAAUUGAUCACAAACAAACAUUACCCCUUUGUUUGACCGUGAAAAUUUCUCCCAUCCCCUUUGUUGUCGUUAAGACAUAUGAAACCGCGCUUAUCCCGGCGCGGUUUCUUU

biological target: T1, CsrA-Strep; assay: EMSA

Binding result, no binding:
B1
B2
B3
